Assay results taken from US20070122429A1, “Designed antigens to elicit neutralizing antibodies against sterically restricted antigen and method of using same” (priority 2005, published 2007).

Experiments:
[1] = target: HIV-1 HXB2 Env (gp41 N-trimer region) (HIV-1 HXB2) (UniProt P04578); experiment: cell-based or functional assay
[2] = target: HIV-1 JRFL Env (gp41 N-trimer region) (HIV-1 JRFL); experiment: cell-based or functional assay

Work on BPTI-H6 (from UniProt P00974 36-93) yielded a no inhibition of cell-cell fusion or viral infectivity (HXB2 Env) up to the stated concentration [1] greater than 1 µM and a no inhibition of viral infectivity (JRFL Env) up to the stated concentration [2] greater than 1 µM.

GFP-H6 gave a no inhibition of cell-cell fusion or viral infectivity (HXB2 Env) up to the stated concentration [1] greater than 1 µM and a no inhibition of viral infectivity (JRFL Env) up to the stated concentration [2] greater than 1 µM.

Substance MBP-H6 (from UniProt P0AEX9 27-392) has a no inhibition of cell-cell fusion or viral infectivity (HXB2 Env) up to the stated concentration [1] greater than 1 µM and a no inhibition of viral infectivity (JRFL Env) up to the stated concentration [2] greater than 10 µM.

“Ub-C37 (from UniProt P0CG48 1-76; P04578 625-661)” gave an IC50, viral infectivity HXB2 [1] of 6.8 nM and an IC50, viral infectivity JRFL [2] of 37.7 nM.
